Assay [1] concerns the target T1, recombinant human TIGIT (Sino Biological) (human, UniProt Q495A1 22-138).
T1 construct: Bought protein; NP_776160.2; also called human TIGIT antigen; hTIGIT
T1 sequence: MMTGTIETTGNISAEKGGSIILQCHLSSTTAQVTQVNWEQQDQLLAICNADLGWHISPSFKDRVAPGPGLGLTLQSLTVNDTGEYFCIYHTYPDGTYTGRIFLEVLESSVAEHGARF
Kind of assay: SPR single cycle kinetics; KD divided by KD of the VH0/Vκ0 chimeric antibody.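 Note: biacore T200 SPR at 25 °C, IgG captured on anti-human chip, TIGIT analyte in four rising concentrations, 210 s association each, 900 s dissociation.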

Assay [2] addresses T1, recombinant human TIGIT (Sino …). Kind of assay: SPR (Biacore T200), single cycle kinetics, IgG from supernatant captured on anti-human chip, TIGIT as analyte, 1:1 fit. (In general: In SPR one partner is held on a chip, and binding of the other changes the refractive index at the surface.)
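Throughout, for KD: measured at 25 °C in HBS-P+ with 1% BSA, four ascending TIGIT concentrations, 210 s association per step, one final 900 s dissociation.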
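Throughout, for koff: measured at 25 °C in HBS-P+ with 1% BSA, four ascending TIGIT concentrations, 210 s association per step, one final 900 s dissociation.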
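Throughout, for kon: measured at 25 °C in HBS-P+ with 1% BSA, four ascending TIGIT concentrations, 210 s association per step, one final 900 s dissociation.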

B1: 7A6 VH3/Vκ3 humanized antibody (human IgG1, kappa) (antibody, V domains shown)
VH: QVQLQESGPGLVKPSQTLSLTCTVTGYSITSDYAWNWIRQPPGKGLEWMGYISYSGSARYNPSLKSRVTISRDTSKNQFSLKLSSVTAEDTATYYCARKGYPAYFAYWGQGTLVTVSS
VL: DIQMTQSPSSLSASVGDRVSITCKASQDVSTAVAWYQQKPGQAPRLLIYSASYRYTGVPDRFSGSGSGTDFTLTISSLQAEDVAVYYCQHHYSTPYTFGQGTKLEIKR
notes: Tested as IgG in supernatant of transiently transfected HEK293 EBNA cells
For orientation: Kd means a measure of binding affinity in units of concentration. The term koff denotes the first-order rate constant of dissociation. For orientation: kon means the rate constant with which the complex forms. As for B1, the “Relative KD” value in assay [1] amounted to 1.38. Further, in assay [2], the dissociation constant Kd amounted to 0.903 nM, the off-rate (koff) was found to be 0.0015 s⁻¹ and the kon worked out at 1.66e+06 M⁻¹ s⁻¹.

B2: 7A6 VH2/Vκ5 humanized antibody (human IgG1, kappa) (antibody, V domains shown)
VH: DVQLQESGPGLVKPSQTLSLTCTVTGYSITSDYAWNWIRQPPGKGLEWMGYISYSGSARYNPSLKSRITISRDTSKNQFSLKLSSVTAEDTATYYCARKGYPAYFAYWGQGTLVTVSS
VL: DIQMTQSPSSLSASVGDRVSITCKASQDVSTAVAWYQQKPGQAPRLLIYSASYRYTGVPDRFSGSGSGTDFTLTISSLQPEDFATYYCQHHYSTPYTFGQGTKLEIKR
notes: as for B1
Take B2: the “Relative KD” value in assay [1] was found to be 1.16. For the same molecule, in assay [2], the dissociation constant Kd was 0.754 nM, the dissociation rate constant (koff) came to 0.0013 s⁻¹ and the on-rate constant (kon) was 1.72e+06 M⁻¹ s⁻¹.

B3: 7A6 VH1/Vκ2 humanized antibody (human IgG1, kappa) (antibody, V domains shown)
VH: DVQLQESGPGLVKPSQTLSLTCTVTGYSITSDYAWNWIRQPPGKGLEWMGYISYSGSARYNPSLKSRITISRDTSMNQFSLKLNSVTAEDTATYYCARKGYPAYFAYWGQGTLVTVSS
VL: DIVMTQSPSSLSASVGDRVSITCKASQDVSTAVAWYQQKPGQAPRLLIYSASYRYTGVPDRFTGSGSGTDFTLTISSLQAEDVAVYYCQHHYSTPYTFGQGTKLEIKR
notes: as for B1
With B3, the “Relative KD” value in assay [1] turned out to be 1.24. For the same molecule, in assay [2], the dissociation constant (Kd) stood at 0.811 nM, the off-rate constant (koff) is 0.00146 s⁻¹ and the on-rate constant (kon) was found to be 1.8e+06 M⁻¹ s⁻¹.

B4: 7A6 VH1/Vκ3 humanized antibody (human IgG1, kappa) (antibody, V domains shown)
VH: DVQLQESGPGLVKPSQTLSLTCTVTGYSITSDYAWNWIRQPPGKGLEWMGYISYSGSARYNPSLKSRITISRDTSMNQFSLKLNSVTAEDTATYYCARKGYPAYFAYWGQGTLVTVSS
VL: DIQMTQSPSSLSASVGDRVSITCKASQDVSTAVAWYQQKPGQAPRLLIYSASYRYTGVPDRFSGSGSGTDFTLTISSLQAEDVAVYYCQHHYSTPYTFGQGTKLEIKR
notes: as for B1
As for B4, the “Relative KD” value in assay [1] is 1.48. Moreover, in assay [2], the Kd is 0.963 nM, the off-rate (koff) amounted to 0.00182 s⁻¹ and the kon was 1.89e+06 M⁻¹ s⁻¹.

B5: 7A6 VH2/Vκ3 humanized antibody (human IgG1, kappa) (antibody, V domains shown)
VH: DVQLQESGPGLVKPSQTLSLTCTVTGYSITSDYAWNWIRQPPGKGLEWMGYISYSGSARYNPSLKSRITISRDTSKNQFSLKLSSVTAEDTATYYCARKGYPAYFAYWGQGTLVTVSS
VL: DIQMTQSPSSLSASVGDRVSITCKASQDVSTAVAWYQQKPGQAPRLLIYSASYRYTGVPDRFSGSGSGTDFTLTISSLQAEDVAVYYCQHHYSTPYTFGQGTKLEIKR
notes: as for B1
For B5, the “Relative KD” value in assay [1] is 1.38. Further, in assay [2], the dissociation constant (Kd) worked out at 0.897 nM, the dissociation rate constant (koff) stood at 0.00134 s⁻¹ and the kon came to 1.49e+06 M⁻¹ s⁻¹.

B6: 7A6 VH3/Vκ1 humanized antibody (human IgG1, kappa) (antibody, V domains shown)
VH: QVQLQESGPGLVKPSQTLSLTCTVTGYSITSDYAWNWIRQPPGKGLEWMGYISYSGSARYNPSLKSRVTISRDTSKNQFSLKLSSVTAEDTATYYCARKGYPAYFAYWGQGTLVTVSS
VL: DIVMTQSHSFLSASVGDRVSITCKASQDVSTAVAWYQQKPGQAPELLIYSASYRYTGVPDRFTGSGSGTDFTLTISSLQAEDVAVYYCQHHYSTPYTFGQGTKLEMKR
notes: as for B1
As for B6, in assay [1], the “Relative KD” value turned out to be 1.1. In assay [2], the Kd is 0.715 nM, the off-rate constant (koff) stood at 0.00155 s⁻¹ and the association rate constant (kon) amounted to 2.17e+06 M⁻¹ s⁻¹.

B7: 7A6 VH1/Vκ1 humanized antibody (human IgG1, kappa) (antibody, V domains shown)
VH: DVQLQESGPGLVKPSQTLSLTCTVTGYSITSDYAWNWIRQPPGKGLEWMGYISYSGSARYNPSLKSRITISRDTSMNQFSLKLNSVTAEDTATYYCARKGYPAYFAYWGQGTLVTVSS
VL: DIVMTQSHSFLSASVGDRVSITCKASQDVSTAVAWYQQKPGQAPELLIYSASYRYTGVPDRFTGSGSGTDFTLTISSLQAEDVAVYYCQHHYSTPYTFGQGTKLEMKR
notes: as for B1
Regarding B7, the “Relative KD” value in assay [1] turned out to be 0.85. Moreover, in assay [2], the dissociation constant (Kd) is 0.554 nM, the off-rate constant (koff) was 0.00129 s⁻¹ and the kon was determined as 2.33e+06 M⁻¹ s⁻¹.

B8: 7A6 VH1/Vκ5 humanized antibody (human IgG1, kappa) (antibody, V domains shown)
VH: DVQLQESGPGLVKPSQTLSLTCTVTGYSITSDYAWNWIRQPPGKGLEWMGYISYSGSARYNPSLKSRITISRDTSMNQFSLKLNSVTAEDTATYYCARKGYPAYFAYWGQGTLVTVSS
VL: DIQMTQSPSSLSASVGDRVSITCKASQDVSTAVAWYQQKPGQAPRLLIYSASYRYTGVPDRFSGSGSGTDFTLTISSLQPEDFATYYCQHHYSTPYTFGQGTKLEIKR
notes: as for B1
Regarding B8, the “Relative KD” value in assay [1] amounted to 1.1. Further, in assay [2], the equilibrium dissociation constant (Kd) was 0.717 nM, the koff worked out at 0.00129 s⁻¹ and the association rate constant (kon) came out at 1.8e+06 M⁻¹ s⁻¹.

B9: 7A6 VH1/Vκ4 humanized antibody (human IgG1, kappa) (antibody, V domains shown)
VH: DVQLQESGPGLVKPSQTLSLTCTVTGYSITSDYAWNWIRQPPGKGLEWMGYISYSGSARYNPSLKSRITISRDTSMNQFSLKLNSVTAEDTATYYCARKGYPAYFAYWGQGTLVTVSS
VL: DIQMTQSPSSLSASVGDRVTITCRASQDVSTAVAWYQQKPGQAPRLLIYSASYRYTGVPDRFSGSGSGTDFTLTISSLQAEDVAVYYCQHHYSTPYTFGQGTKLEIKR
notes: as for B1
Consider B9, for which, in assay [1], the “Relative KD” value was 1.34. Besides, in assay [2], the Kd came to 0.876 nM, the off-rate (koff) was 0.00167 s⁻¹ and the on-rate (kon) came out at 1.91e+06 M⁻¹ s⁻¹.

B10: 7A6 VH2/Vκ1 humanized antibody (human IgG1, kappa) (antibody, V domains shown)
VH: DVQLQESGPGLVKPSQTLSLTCTVTGYSITSDYAWNWIRQPPGKGLEWMGYISYSGSARYNPSLKSRITISRDTSKNQFSLKLSSVTAEDTATYYCARKGYPAYFAYWGQGTLVTVSS
VL: DIVMTQSHSFLSASVGDRVSITCKASQDVSTAVAWYQQKPGQAPELLIYSASYRYTGVPDRFTGSGSGTDFTLTISSLQAEDVAVYYCQHHYSTPYTFGQGTKLEMKR
notes: as for B1
Take B10: in assay [1], the “Relative KD” value was 1.1. In addition, in assay [2], the dissociation constant (Kd) turned out to be 0.715 nM, the koff was 0.00168 s⁻¹ and the kon was determined as 2.36e+06 M⁻¹ s⁻¹.

B11: 7A6 VH2/Vκ4 humanized antibody (human IgG1, kappa) (antibody, V domains shown)
VH: DVQLQESGPGLVKPSQTLSLTCTVTGYSITSDYAWNWIRQPPGKGLEWMGYISYSGSARYNPSLKSRITISRDTSKNQFSLKLSSVTAEDTATYYCARKGYPAYFAYWGQGTLVTVSS
VL: DIQMTQSPSSLSASVGDRVTITCRASQDVSTAVAWYQQKPGQAPRLLIYSASYRYTGVPDRFSGSGSGTDFTLTISSLQAEDVAVYYCQHHYSTPYTFGQGTKLEIKR
notes: as for B1
On to B11, for which the “Relative KD” value in assay [1] was 1.58. Also, in assay [2], the dissociation constant Kd is 1.03 nM, the koff stood at 0.00181 s⁻¹ and the kon was determined as 1.75e+06 M⁻¹ s⁻¹.

B12: 7A6 VH2/Vκ2 humanized antibody (human IgG1, kappa) (antibody, V domains shown)
VH: DVQLQESGPGLVKPSQTLSLTCTVTGYSITSDYAWNWIRQPPGKGLEWMGYISYSGSARYNPSLKSRITISRDTSKNQFSLKLSSVTAEDTATYYCARKGYPAYFAYWGQGTLVTVSS
VL: DIVMTQSPSSLSASVGDRVSITCKASQDVSTAVAWYQQKPGQAPRLLIYSASYRYTGVPDRFTGSGSGTDFTLTISSLQAEDVAVYYCQHHYSTPYTFGQGTKLEIKR
notes: as for B1
For the molecule B12, in assay [1], the “Relative KD” value stood at 1.47. In assay [2], the Kd stood at 0.961 nM, the koff is 0.00158 s⁻¹ and the kon turned out to be 1.65e+06 M⁻¹ s⁻¹.

Values taken from patent publication US20250064909A1 (MEDIMABBIO, published 2025).
